1 molecule from patent US20100041875A1 (PROGENICS PHARMACEUTICAL INC AND CORNELL RESEARCH FOUNDATION, published 2010) can be followed below.

This assay deals with full-length WT JR-FL (gp160) Env (JR-FL WT) (HIV-1 isolate JR-FL (subtype B), UniProt P20871 32-848). Kind of assay: cell-based or functional assay.

B1: MAb 2G12 (antibody, V domains shown)
VH: EVQLVESGGGLVKAGGSLILSCGVSNFRISAHTMNWVRRVPGGGLEWVASISTSSTYRDYADAVKGRFTVSRDDLEDFVYLQMHKMRVEDTAIYYCARKGSDRLSDNDPFDAWGPGTVVTVSP
VL: VVMTQSPSTLSASVGDTITITCRASQSIETWLAWYQQKPGKAPKLLIYKASTLKTGVPSRFSGSGSGTEFTLTISGLQFDDFATYHCQHYAGYSATFGQGTRVEIKR
With B1, the “neutralization of Env-pseudotyped virus infectivity (U87.CD4.CCR5 cells), mean IC50” value worked out at 1.6 µg/mL.
